Assay results reported in article PMC11722432.

Molecular target: dynein-dynactin complex (pig brain dynein with pig brain dynactin) (pig (endogenous in pig brain)) (UniProt F2Z5G5)
Experiment: negative-stain EM

For “full-length BicdR1 (from UniProt A0JNT9 1-577) (natural protein)”, the Kd was 5.11 µM.
